{"source": "IntAct's records for PubMed 31515488", "parents": {"B1": {"name": "Ligand of Numb protein X 2 (Homo sapiens), Q8N448 (parent)", "chain": "MGTTSDEMVSVEQTSSSSLNPLCFECGQQHWTRENHLYNYQNEVDDDLVCHICLQPLLQPLDTPCGHTFCYKCLRNFLQEKDFCPLDRKRLHFKLCKKSSILVHKLLDKLLVLCPFSSVCKDVMQRCDLEAHLKNRCPGASHRRVALERRKTSRTQAEIENENGPTLLDPAGTLSPEADCLGTGAVPVERHLTSASLSTWSEEPGLDNPAFEESAGADTTQQPLSLPEGEITTIEIHRSNPYIQLGISIVGGNETPLINIVIQEVYRDGVIARDGRLLAGDQILQVNNYNISNVSHNYARAVLSQPCNTLHLTVLRERRFGNRAHNHSDSNSPREEIFQVALHKRDSGEQLGIKLVRRTDEPGVFILDLLEGGLAAQDGRLSSNDRVLAINGHDLKYGTPELAAQIIQASGERVNLTIARPGKPQPGNTIREAGNHSSSSQHHTPPPYYSRPSSHKDLTQCVTCQEKHITVKKEPHESLGMTVAGGRGSKSGELPIFVTSVPPHGCLARDGRIKRGDVLLNINGIDLTNLSHSEAVAMLKASAASPAVALKALEVQIVEEATQNAEEQPSTFSENEYDASWSPSWVMWLGLPSTLHSCHDIVLRRSYLGSWGFSIVGGYEENHTNQPFFIKTIVLGTPAYYDGRLKCGDMIVAVNGLSTVGMSHSALVPMLKEQRNKVTLTVICWPGSLV", "partner": "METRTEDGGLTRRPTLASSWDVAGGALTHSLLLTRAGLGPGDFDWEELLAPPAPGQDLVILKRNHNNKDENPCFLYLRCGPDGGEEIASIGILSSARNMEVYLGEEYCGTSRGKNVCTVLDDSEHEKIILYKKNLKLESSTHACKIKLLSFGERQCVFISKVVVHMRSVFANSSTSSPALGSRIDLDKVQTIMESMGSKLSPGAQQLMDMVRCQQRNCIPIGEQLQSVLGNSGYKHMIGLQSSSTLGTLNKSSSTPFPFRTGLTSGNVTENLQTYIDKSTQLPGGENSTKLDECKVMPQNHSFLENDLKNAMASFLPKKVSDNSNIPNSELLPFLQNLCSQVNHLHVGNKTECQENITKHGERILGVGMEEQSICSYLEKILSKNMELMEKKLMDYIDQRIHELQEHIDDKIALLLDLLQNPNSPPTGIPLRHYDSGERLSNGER"}, "B2": {"name": "Protein LDOC1 (Homo sapiens), O95751 (parent)", "chain": "MVDELVLLLHALLMRHRALSIENSQLMEQLRLLVCERASLLRQVRPPSCPVPFPETFNGESSRLPEFIVQTASYMLVNENRFCNDAMKVAFLISLLTGEAEEWVVPYIEMDSPILGDYRAFLDEMKQCFGWDDDEDDDDEEEEDDY", "partner": "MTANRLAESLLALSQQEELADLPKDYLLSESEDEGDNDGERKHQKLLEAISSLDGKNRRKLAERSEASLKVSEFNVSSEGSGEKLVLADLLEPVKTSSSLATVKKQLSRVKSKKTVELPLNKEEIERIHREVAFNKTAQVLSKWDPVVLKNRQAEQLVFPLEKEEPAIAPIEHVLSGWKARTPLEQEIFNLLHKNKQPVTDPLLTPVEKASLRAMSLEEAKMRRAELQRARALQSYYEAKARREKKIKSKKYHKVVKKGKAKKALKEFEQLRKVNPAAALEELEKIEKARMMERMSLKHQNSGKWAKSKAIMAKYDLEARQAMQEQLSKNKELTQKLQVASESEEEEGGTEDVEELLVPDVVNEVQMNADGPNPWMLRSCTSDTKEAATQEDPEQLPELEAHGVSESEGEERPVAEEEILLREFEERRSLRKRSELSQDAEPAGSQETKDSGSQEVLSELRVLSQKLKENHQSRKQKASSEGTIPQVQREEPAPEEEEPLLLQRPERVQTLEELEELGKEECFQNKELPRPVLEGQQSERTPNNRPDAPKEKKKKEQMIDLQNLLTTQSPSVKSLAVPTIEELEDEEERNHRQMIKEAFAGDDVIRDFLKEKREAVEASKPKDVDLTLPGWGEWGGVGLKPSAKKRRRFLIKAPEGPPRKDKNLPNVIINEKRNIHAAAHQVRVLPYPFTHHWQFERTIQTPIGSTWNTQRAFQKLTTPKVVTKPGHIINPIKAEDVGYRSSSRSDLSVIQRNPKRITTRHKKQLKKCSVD"}, "B3": {"name": "Migration and invasion-inhibitory protein (Homo sapiens), Q5JXC2 (parent)", "chain": "MVEAEELAQLRLLNLELLRQLWVGQDAVRRSVARAASESSLESSSSYNSETPSTPETSSTSLSTSCPRGRSSVWGPPDACRGDLRDVARSGVASLPPAKCQHQESLGRPRPHSAPSLGTSSLRDPEPSGRLGDPGPQEAQTPRSILAQQSKLSKPRVTFSEESAVPKRSWRLRPYLGYDWIAGSLDTSSSITSQPEAFFSKLQEFRETNKEECICSHPEPQLPGLRESSGSGVEEDHECVYCYRVNRRLFPVPVDPGTPCRLCRTPRDQQGPGTLAQPAHVRVSIPLSILEPPHRYHIHRRKSFDASDTLALPRHCLLGWDIFPPKSEKSSAPRNLDLWSSVSAEAQHQKLSGTSSPFHPASPMQMLPPTPTWSVPQVPRPHVPRQKP"}, "B4": {"name": "Notch homolog 2 N-terminal-like protein A (Homo sapiens), Q7Z3S9 (parent)", "chain": "MCVTYHNGTGYCKCPEGFLGEYCQHRDPCEKNRCQNGGTCVAQAMLGKATCRCASGFTGEDCQYSTSHPCFVSRPCLNGGTCHMLSRDTYECTCQVGFTGKECQWTDACLSHPCANGSTCTTVANQFSCKCLTGFTGQKCETDVNECDIPGHCQHGGTCLNLPGSYQCQCLQGFTGQYCDSLYVPCAPSPCVNGGTCRQTGDFTFECNCLPETVRRGTELWERDREVWNGKEHDEN", "partner": "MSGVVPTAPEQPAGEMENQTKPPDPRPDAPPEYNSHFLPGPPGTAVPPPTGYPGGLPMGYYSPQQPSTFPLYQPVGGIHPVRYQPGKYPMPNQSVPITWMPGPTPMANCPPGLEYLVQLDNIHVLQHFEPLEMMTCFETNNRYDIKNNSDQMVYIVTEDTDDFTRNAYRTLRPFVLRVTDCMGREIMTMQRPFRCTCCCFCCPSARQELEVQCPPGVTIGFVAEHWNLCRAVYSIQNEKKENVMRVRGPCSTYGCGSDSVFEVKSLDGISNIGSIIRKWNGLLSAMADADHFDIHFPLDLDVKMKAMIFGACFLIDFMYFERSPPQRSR"}, "B5": {"name": "Retinoic acid receptor alpha (Homo sapiens), P10276 (parent)", "chain": "MASNSSSCPTPGGGHLNGYPVPPYAFFFPPMLGGLSPPGALTTLQHQLPVSGYSTPSPATIETQSSSSEEIVPSPPSPPPLPRIYKPCFVCQDKSSGYHYGVSACEGCKGFFRRSIQKNMVYTCHRDKNCIINKVTRNRCQYCRLQKCFEVGMSKESVRNDRNKKKKEVPKPECSESYTLTPEVGELIEKVRKAHQETFPALCQLGKYTTNNSSEQRVSLDIDLWDKFSELSTKCIIKTVEFAKQLPGFTTLTIADQITLLKAACLDILILRICTRYTPEQDTMTFSDGLTLNRTQMHNAGFGPLTDLVFAFANQLLPLEMDDAETGLLSAICLICGDRQDLEQPDRVDMLQEPLLEALKVYVRKRRPSRPHMFPKMLMKITDLRSISAKGAERVITLKMEIPGSMPPLIQEMLENSEGLDTLSGQPGGGGRDGGGLAPPPGSCSPSLSPSSNRSSPATHSP", "partner": "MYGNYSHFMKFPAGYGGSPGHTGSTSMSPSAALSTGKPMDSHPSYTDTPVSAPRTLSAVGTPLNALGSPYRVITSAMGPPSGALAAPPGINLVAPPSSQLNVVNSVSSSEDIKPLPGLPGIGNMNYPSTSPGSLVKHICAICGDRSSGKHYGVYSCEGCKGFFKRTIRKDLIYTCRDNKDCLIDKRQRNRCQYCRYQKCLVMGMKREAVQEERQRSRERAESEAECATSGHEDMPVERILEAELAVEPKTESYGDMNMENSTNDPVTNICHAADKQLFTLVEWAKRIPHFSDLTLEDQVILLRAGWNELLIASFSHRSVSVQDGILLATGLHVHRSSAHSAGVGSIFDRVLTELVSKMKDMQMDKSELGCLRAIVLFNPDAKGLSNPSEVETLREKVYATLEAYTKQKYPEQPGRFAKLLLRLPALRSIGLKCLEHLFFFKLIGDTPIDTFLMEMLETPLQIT"}, "B6": {"name": "LIM/homeobox protein Lhx4 (Homo sapiens), Q969G2 (parent)", "chain": "MMQSATVPAEGAVKGLPEMLGVPMQQIPQCAGCNQHILDKFILKVLDRHWHSSCLKCADCQMQLADRCFSRAGSVYCKEDFFKRFGTKCTACQQGIPPTQVVRKAQDFVYHLHCFACIICNRQLATGDEFYLMEDGRLVCKEDYETAKQNDDSEAGAKRPRTTITAKQLETLKNAYKNSPKPARHVREQLSSETGLDMRVVQVWFQNRRAKEKRLKKDAGRHRWGQFYKSVKRSRGSSKQEKESSAEDCGVSDSELSFREDQILSELGHTNRIYGNVGDVTGGQLMNGSFSMDGTGQSYQDLRDGSPYGIPQSPSSISSLPSHAPLLNGLDYTVDSNLGIIAHAGQGVSQTLRAMAGGPTSDISTGSSVGYPDFPTSPGSWLDEMDHPPF", "partner": "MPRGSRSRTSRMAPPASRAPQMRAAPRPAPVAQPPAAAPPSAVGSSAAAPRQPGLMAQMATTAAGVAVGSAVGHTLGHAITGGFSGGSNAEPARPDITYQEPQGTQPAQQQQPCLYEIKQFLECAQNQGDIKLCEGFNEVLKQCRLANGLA"}, "B7": {"name": "SH2 domain-containing protein 4A (Homo sapiens), Q9H788 (parent)", "chain": "MLKQILSEMYIDPDLLAELSEEQKQILFFKMREEQIRRWKEREAAMERKESLPVKPRPKKENGKSVHWKLGADKEVWVWVMGEHHLDKPYDVLCNEIIAERARLKAEQEAEEPRKTHSEEFTNSLKTKSQYHDLQAPDNQQTKDIWKKVAEKEELEQGSRPAPTLEEEKIRSLSSSSRNIQQMLADSINRMKAYAFHQKKESMKKKQDEEINQIEEERTKQICKSWKEDSEWQASLRKSKAADEKRRSLAKQAREDYKRLSLGAQKGRGGERLQSPLRVPQKPERPPLPPKPQFLNSGAYPQKPLRNQGVVRTLSSSAQEDIIRWFKEEQLPLRAGYQKTSDTIAPWFHGILTLKKANELLLSTGMPGSFLIRVSERIKGYALSYLSEDGCKHFLIDASADAYSFLGVDQLQHATLADLVEYHKEEPITSLGKELLLYPCGQQDQLPDYLELFE"}}, "data": [{"variants_of": "B1", "conditions": "with paat_human PAAT", "values": [{"variant": "T183I", "effect of a mutation on the interaction": "with no effect"}, {"variant": "V145I", "effect of a mutation on the interaction": "with no effect"}]}, {"variants_of": "B2", "conditions": "with ut14a_human UTP14A", "values": [{"variant": "L12H", "effect of a mutation on the interaction": "with no effect"}]}, {"variants_of": "B3", "conditions": "with stk16_human STK16, O75716", "values": [{"variant": "R171C", "effect of a mutation on the interaction": "with no effect"}]}, {"variants_of": "B4", "conditions": "with pls4_human PLSCR4, Q9NRQ2", "values": [{"variant": "R74Q", "effect of a mutation on the interaction": "with no effect"}, {"variant": "A115T", "effect of a mutation on the interaction": "with no effect"}]}, {"variants_of": "B5", "conditions": "with rxrg_human RXRG", "values": [{"variant": "P318R", "effect of a mutation on the interaction": "with no effect"}]}, {"variants_of": "B6", "conditions": "with chch2_human CHCHD2, Q9Y6H1", "values": [{"variant": "N328S", "effect of a mutation on the interaction": "with no effect"}]}, {"variants_of": "B7", "conditions": "with tfp11_human TFIP11, Q9UBB9", "values": [{"variant": "G263A", "effect of a mutation on the interaction": "with no effect"}]}, {"variants_of": "B7", "conditions": "with tacc1_human TACC1, O75410", "values": [{"variant": "G263A", "effect of a mutation on the interaction": "with no effect"}]}, {"variants_of": "B7", "conditions": "with ldoc1_human LDOC1, O95751", "values": [{"variant": "G263A", "effect of a mutation on the interaction": "with no effect"}]}]}
